Source: publication PMC8033513, “Targeting netrin‐3 in small cell lung cancer and neuroblastoma” (EMBO Molecular Medicine, 2021)

B1: extra‐cellular domain (ECD) of human UNC5H3 (domain or fragment)
chain: not shown
notes: UNC5H3 (UNC5C), human, extracellular domain; it may be an Fc chimera like the other ECDs; also called hUNC5H3; UNC5‐C; source: recombinant
B2: extra‐cellular domain (ECD) of human UNC5H1 (domain or fragment)
chain: not shown
notes: UNC5H1 (UNC5A), human, extracellular domain; it may be an Fc chimera like the other ECDs; also called hUNC5H1; UNC5A; source: recombinant
B3: extra‐cellular domain (ECD) of rat UNC5H2 (Fc fusion)
chain: not shown
notes: UNC5H2 (UNC5B), rat, extracellular domain; The Fc is inferred from the capture on AHC biosensors in the antagonism test; also called rUNC5H2; UNC5‐B; source: recombinant
B4: chicken netrin‐2L (netrin‐2‐like) (ligand)
chain: not shown
notes: netrin-2 (netrin-2-like), chicken, used in place of human netrin-3 as its ortholog; Used because recombinant human netrin-3 was not soluble; also called NTN2L; NTN‐2L; source: recombinant

What was measured:
[1] = molecular target: B4; assay: BLI; OctetRED96; netrin-1 or netrin-2 coated on HIS1K biosensors, UNC5 ECDs in solution at 3.12-100 nM; 30°C, 1,000 rpm, PBS, 0.02% Tween-20, 0.1% BSA; 5 min association, 5 min dissociation; 1:1 binding model; settings: both partners purified
[2] = molecular target: T1, extra‐cellular domain (ECD) of mouse DCC (mouse, UniProt P70211 26-1097); assay: BLI; OctetRED96; ECDs of mNeogenin or mDCC coated on AHC biosensors, hNetrin-1 or chNetrin-2 in solution at 3.12-100 nM; 30°C, PBS, 0.02% Tween-20, 0.1% BSA with 1 µg/ml Dextran 5,000; 1:1 binding model; settings: both partners purified
T1 construct: DCC (deleted in colorectal carcinoma), mouse, extracellular domain; The Fc is inferred from the capture on AHC biosensors; also called mDCC; source: recombinant
T1 sequence (P70211 26-1097): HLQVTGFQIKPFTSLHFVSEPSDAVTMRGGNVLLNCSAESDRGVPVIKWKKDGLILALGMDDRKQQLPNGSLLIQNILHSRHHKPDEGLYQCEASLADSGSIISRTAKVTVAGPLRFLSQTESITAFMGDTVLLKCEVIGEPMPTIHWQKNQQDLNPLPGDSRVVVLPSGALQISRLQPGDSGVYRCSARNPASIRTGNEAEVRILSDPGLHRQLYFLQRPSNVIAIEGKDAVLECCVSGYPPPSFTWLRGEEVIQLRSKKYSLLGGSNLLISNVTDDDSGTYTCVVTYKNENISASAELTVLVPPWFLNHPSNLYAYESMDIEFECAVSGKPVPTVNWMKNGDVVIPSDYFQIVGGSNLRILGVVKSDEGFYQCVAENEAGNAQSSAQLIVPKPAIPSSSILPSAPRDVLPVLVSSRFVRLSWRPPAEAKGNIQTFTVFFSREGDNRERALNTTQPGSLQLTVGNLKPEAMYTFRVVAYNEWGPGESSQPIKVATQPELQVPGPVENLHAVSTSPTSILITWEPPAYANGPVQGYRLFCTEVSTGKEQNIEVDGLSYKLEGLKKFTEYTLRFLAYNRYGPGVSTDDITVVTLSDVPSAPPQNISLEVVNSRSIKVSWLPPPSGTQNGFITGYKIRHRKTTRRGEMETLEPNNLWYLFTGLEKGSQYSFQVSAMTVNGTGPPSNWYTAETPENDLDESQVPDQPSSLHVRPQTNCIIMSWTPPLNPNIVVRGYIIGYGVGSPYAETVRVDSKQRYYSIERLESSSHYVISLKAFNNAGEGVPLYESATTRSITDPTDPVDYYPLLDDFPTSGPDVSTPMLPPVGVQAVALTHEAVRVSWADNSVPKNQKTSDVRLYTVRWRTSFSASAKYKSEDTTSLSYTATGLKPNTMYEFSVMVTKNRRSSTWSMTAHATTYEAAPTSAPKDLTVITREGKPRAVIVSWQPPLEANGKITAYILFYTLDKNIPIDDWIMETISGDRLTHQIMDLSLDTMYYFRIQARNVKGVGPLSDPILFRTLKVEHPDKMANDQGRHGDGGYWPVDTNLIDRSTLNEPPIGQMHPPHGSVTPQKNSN

| Binder | binding result [1] | binding result [2] |
| --- | --- | --- |
| B1 | binds |  |
| B2 | binds |  |
| B3 | binds |  |
| B4 |  | binds |
